Target: SUMO fusion of the glycophorin A TM domain
Experiment: SEC

- stoichiometry N: 2
Substance: SUMO fusion of the glycophorin A TM domain (domain or fragment)
